Test system: peptide library, one residue held at a place counted from the Y acceptor
Assay: relative phosphorylation of the sub-library (ratio to the mean residue at this position); higher = residue favoured
Procedure, shortened: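 Every value reflects phosphorylation relative to the mean randomized residue. The sum of the 18 randomized residues, or 16 in the Ser/Thr-free library, served to normalize intensities at each position, which were then multiplied by that number. Intensities came from phosphorimaging with ImageQuant of biotinylated Tyr-centred peptides captured on streptavidin membranes after 90 min with purified recombinant kinases and 50 μM ATP plus γ-32P-ATP.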

Chain of ZAP70, construct: Full length, human (P43403 whole entry, looked up): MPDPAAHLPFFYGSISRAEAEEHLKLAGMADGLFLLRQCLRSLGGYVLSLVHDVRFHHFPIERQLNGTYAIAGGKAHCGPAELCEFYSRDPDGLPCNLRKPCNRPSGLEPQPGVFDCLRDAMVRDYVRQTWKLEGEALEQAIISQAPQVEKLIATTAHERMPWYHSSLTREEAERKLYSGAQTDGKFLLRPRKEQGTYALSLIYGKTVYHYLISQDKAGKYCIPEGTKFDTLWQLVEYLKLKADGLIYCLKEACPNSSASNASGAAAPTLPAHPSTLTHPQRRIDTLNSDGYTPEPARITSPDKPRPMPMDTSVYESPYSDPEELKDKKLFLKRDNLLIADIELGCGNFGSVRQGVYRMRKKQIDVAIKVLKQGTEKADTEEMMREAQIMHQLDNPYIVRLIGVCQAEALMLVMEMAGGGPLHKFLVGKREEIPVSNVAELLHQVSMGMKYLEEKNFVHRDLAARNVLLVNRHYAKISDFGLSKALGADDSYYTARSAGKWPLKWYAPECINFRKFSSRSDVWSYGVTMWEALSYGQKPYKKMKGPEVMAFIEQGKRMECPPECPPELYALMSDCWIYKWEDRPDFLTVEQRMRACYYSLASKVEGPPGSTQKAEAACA

ZAP70, construct: Full length, human (from UniProt P43403)
relative phosphorylation
Conditions	at +1	at +2	at +3	at +4	at +5	at -1	at -2	at -3	at -4	at -5
A fixed	1.06	0.821	0.963	0.884	1.33	0.998	0.898	0.967	1.56	1.12
D fixed	0.587	0.722	0.434	1.07	1.28	3.39	1.51	2.04	1.67	1.57
E fixed	1.29	1.08	0.275	1	1.28	1.95	2.19	2.09	2.51	1.4
F fixed	1.5	1.2	0.924	0.707	0.618	0.579	0.492	0.617	0.494	0.863
G fixed	0.481	0.544	0.842	1.14	1.63	0.746	1.56	1.1	1.43	1.58
H fixed	1.33	0.773	0.947	1.21	0.872	0.946	1	0.848	0.854	1.15
I fixed	0.769	0.724	1.11	0.548	0.423	0.956	0.413	0.588	0.561	0.684
K fixed	0.553	0.811	0.389	1.01	0.858	0.496	0.629	0.638	0.609	0.847
L fixed	0.761	0.949	0.956	0.764	0.55	0.796	0.465	0.559	0.571	0.553
M fixed	0.97	0.827	1.98	0.997	0.83	0.671	0.633	0.54	0.618	0.947
N fixed	0.635	1.01	0.499	0.731	0.967	1.2	1.52	1.53	0.822	1.26
P fixed	0.314	0.988	2.61	1.77	2.28	0.594	0.845	1.06	1.76	1.08
Q fixed	1.4	1.14	0.626	1.28	0.936	0.958	1.46	1.01	1.03	0.886
R fixed	0.448	0.77	0.432	1	0.522	0.4	0.576	0.713	0.684	0.814
S fixed	0.981	0.862	1.09	1.05	1.15	0.899	1.39	1.36	0.877	0.847
T fixed	1.31	1.08	0.782	0.955	1.25	1.04	1.26	0.966	0.661	0.925
V fixed	1.56	0.99	1.55	0.907	0.617	0.8	0.693	0.666	0.676	0.837
W fixed	2.05	2.7	1.58	0.97	0.62	0.573	0.464	0.713	0.625	0.625
pThr fixed	1.75	2.19	0.364	0.792	1.55	6.59	4.22	4.5	2.58	2.92
pTyr fixed	14.8	2.62	0.501	0.573	1.09	16.3	3.62	4.31	3.03	2.17

From the supplement of paper PMC11136658
